# Data: the supplement of paper PMC10567573
# B1: ZNF511 (parent)
# chain: FDALDDYEHHYHTLHGNVCSFCKR
# Variants of: B1
# Assay: protein stability index of a GFP-peptide fusion (GPS, HEK-293T) (PSI 1-6); higher = more stable
# Conditions: c terminus: a fixed tail appended
# 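Also: lentivirally expressed fusions sorted by FACS into six bins by GFP to DsRed ratio, PSI derived from sequencing read proportions per bin multiplied by bin number.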
row,Variant,protein stability index
1,FDALDDYEHHYHGLHGNVCSFCKR,4.15
2,FDALDDYEHHYHSLHGNVCSFCKR,3.54
3,FDALDDYEHHYHNLHGNVCSFCKR,3.56
4,FDALDDYEHHYHKLHGNVCSFCKR,3.4
5,FDALDDYEHHYHILHGNVCSFCKR,3.19
6,FDALDDYEHHYHELHGNVCSFCKR,4.27
7,FDALDDYEHHYHVLHGNVCSFCKR,3.77
8,FDALDDYEHHYHHLHGNVCSFCKR,4.17
9,FDALDDYEHHYHDLHGNVCSFCKR,3.91
10,FDALDDYEHHYHWLHGNVCSFCKR,2.78
11,FDALDDYEHHYHALHGNVCSFCKR,3.82
12,FDALDDYEHHYHTLHPNVCSFCKR,3.46
13,FDALDDYEHHYHTLHQNVCSFCKR,3.3
14,FDALDDYEHHYHTLHCNVCSFCKR,3.42
15,FDALDDYEHHYHTLHVNVCSFCKR,2.96
16,FDALDDYEHHYHTLHMNVCSFCKR,3.15
17,FDALDDYEHHYHTLHYNVCSFCKR,2.85
18,FDALDDYEHHYHTLHKNVCSFCKR,3.22
19,FDALDDYEHHYHTLHWNVCSFCKR,2.66
20,FDALDDYEHHYHTLHGNVESFCKR,3.21
21,FDALDDYEHHYHTLHGNVISFCKR,2.66
22,FDALDDYEHHYHTLHGNVRSFCKR,2.75
23,FDALDDYEHHYHTLHGNVFSFCKR,2.24
24,FDALDDYEHHYHTLHGNVHSFCKR,3.19

row,Variant,protein stability index
1,FDALDDYEHHYHTLHGWVCSFCKR,2.6
2,FDALDDYEHHYHTLHGYVCSFCKR,2.93
3,FDALDDYEHHYHTLHGRVCSFCKR,3.9
4,FDALDDYEHHYHTLHGDVCSFCKR,4.23
5,FDALDDYEHHYHTLHGGVCSFCKR,3.64
6,FDALDDYEHHYHTLHGQVCSFCKR,2.24
7,FDALDDYEHHYHTLHGAVCSFCKR,3.55
8,FDALDDYEHHYHTLHGVVCSFCKR,3.67
9,FDALDDYEHHYHTLHGIVCSFCKR,3.25
10,FDALDDYEHHYHTLHGFVCSFCKR,3.1
11,HDALDDYEHHYHTLHGNVCSFCKR,4.46
12,NDALDDYEHHYHTLHGNVCSFCKR,4.75
13,EDALDDYEHHYHTLHGNVCSFCKR,4.64
14,PDALDDYEHHYHTLHGNVCSFCKR,4.04
15,QDALDDYEHHYHTLHGNVCSFCKR,4.11
16,VDALDDYEHHYHTLHGNVCSFCKR,4.22
17,TDALDDYEHHYHTLHGNVCSFCKR,4.28
18,FDALDDYEHHYHTLHGNVCAFCKR,3.81
19,FDALDDYEHHYHTLHGNVCKFCKR,3.76
20,FDALDDYEHHYHTLHGNVCRFCKR,3.27
21,FDALDDYEHHYHTLHGNVCGFCKR,2.7
22,FDALDDYEHHYHTLHGNVCYFCKR,4.29
23,FDALDDYEHHYHTLHGNVCCFCKR,3.4
24,FDALDDYEHHYHTLHGNVCPFCKR,3.54

row,Variant,protein stability index
1,FDALDDYEHHYHTLHGNVCLFCKR,3.35
2,FLALDDYEHHYHTLHGNVCSFCKR,3.18
3,FVALDDYEHHYHTLHGNVCSFCKR,2.06
4,FGALDDYEHHYHTLHGNVCSFCKR,4.03
5,FTALDDYEHHYHTLHGNVCSFCKR,3.18
6,FSALDDYEHHYHTLHGNVCSFCKR,3.51
7,FMALDDYEHHYHTLHGNVCSFCKR,3.01
8,FDALVDYEHHYHTLHGNVCSFCKR,3.54
9,FDALWDYEHHYHTLHGNVCSFCKR,2.98
10,FDALRDYEHHYHTLHGNVCSFCKR,3.5
11,FDALHDYEHHYHTLHGNVCSFCKR,3.9
12,FDALEDYEHHYHTLHGNVCSFCKR,3.77
13,FDALYDYEHHYHTLHGNVCSFCKR,3.1
14,FDALKDYEHHYHTLHGNVCSFCKR,3.09
15,FDALLDYEHHYHTLHGNVCSFCKR,3.18
16,FDALPDYEHHYHTLHGNVCSFCKR,4.11
17,FDALIDYEHHYHTLHGNVCSFCKR,3.45
18,FDALDDYEHHEHTLHGNVCSFCKR,4.55
19,FDALDDYEHHWHTLHGNVCSFCKR,2.34
20,FDALDDYEHHCHTLHGNVCSFCKR,4.81
21,FDALDDYEHHMHTLHGNVCSFCKR,4.45
22,FDALDDYEHHTHTLHGNVCSFCKR,4.62
23,FDALDDYEHHSHTLHGNVCSFCKR,4.14
24,FDALDDYEHHLHTLHGNVCSFCKR,4.05

row,Variant,protein stability index
1,FDALDDYEHHRHTLHGNVCSFCKR,4.61
2,FDALDDYEHEYHTLHGNVCSFCKR,3.74
3,FDALDDYEHCYHTLHGNVCSFCKR,4.7
4,FDALDDYEHGYHTLHGNVCSFCKR,3.73
5,FDALDDYEHNYHTLHGNVCSFCKR,3.37
6,FDALDDYEHQYHTLHGNVCSFCKR,3.48
7,FDALDDYEHWYHTLHGNVCSFCKR,3.04
8,FDALDDYEHVYHTLHGNVCSFCKR,2.46
9,FDALDDYMHHYHTLHGNVCSFCKR,2.97
10,FDALDDYVHHYHTLHGNVCSFCKR,2.87
11,FDALDDYWHHYHTLHGNVCSFCKR,2.69
12,FDALDDYHHHYHTLHGNVCSFCKR,3.63
13,FDALDDYLHHYHTLHGNVCSFCKR,2.74
14,FDALDDYTHHYHTLHGNVCSFCKR,3.67
15,FDALDDYKHHYHTLHGNVCSFCKR,3.05
16,FDALDDYCHHYHTLHGNVCSFCKR,4.43
17,FDALDDYEHHYHTLHGNVCSFKKR,3.02
18,FDALDDYEHHYHTLHGNVCSFSKR,3.31
19,FDALDDYEHHYHTLHGNVCSFTKR,2.59
20,FDALDDYEHHYHTLHGNVCSFWKR,1.96
21,FDALDDYEHHYHTLHGNVCSFNKR,3.22
22,FDALDDYEHHYHTLHGNVCSFFKR,2.2
23,FDALDDYEHHYHTLHGNVCSFYKR,2.39
24,FDALDDYEHHYHTLHGNVCSFMKR,2.85

row,Variant,protein stability index
1,FDALDDYEHHYHTLHGNVCSFLKR,2.11
2,FDALDDYEHHYHTLVGNVCSFCKR,3.73
3,FDALDDYEHHYHTLNGNVCSFCKR,3.96
4,FDALDDYEHHYHTLWGNVCSFCKR,3.3
5,FDALDDYEHHYHTLDGNVCSFCKR,3.97
6,FDALDDYEHHYHTLGGNVCSFCKR,3.92
7,FDALDDYEHHYHTLRGNVCSFCKR,3.83
8,FDALDDYEHHYHTLYGNVCSFCKR,3.23
9,FDALDDYEHHYHTLKGNVCSFCKR,3.61
10,FDALDDYEHHYMTLHGNVCSFCKR,2.73
11,FDALDDYEHHYWTLHGNVCSFCKR,2.38
12,FDALDDYEHHYYTLHGNVCSFCKR,2.48
13,FDALDDIEHHYHTLHGNVCSFCKR,4.18
14,FDALDDVEHHYHTLHGNVCSFCKR,3.98
15,FDALDDSEHHYHTLHGNVCSFCKR,4.05
16,FDALDDMEHHYHTLHGNVCSFCKR,4.29
17,FDALDDREHHYHTLHGNVCSFCKR,4.23
18,FDALDDEEHHYHTLHGNVCSFCKR,4.31
19,FDALDDQEHHYHTLHGNVCSFCKR,4.25
20,FDALDDAEHHYHTLHGNVCSFCKR,3.4
21,FDALDDHEHHYHTLHGNVCSFCKR,4.43
22,FDALDDCEHHYHTLHGNVCSFCKR,4.92
23,FDALDDNEHHYHTLHGNVCSFCKR,4.25
24,FDALDDYEHHYHTLHGNVCSFCNR,3.96

row,Variant,protein stability index
1,FDALDDYEHHYHTLHGNVCSFCYR,2.59
2,FDALDDYEHHYHTLHGNVCSFCIR,2.89
3,FDALDDYEHHYHTLHGNVCSFCSR,3.6
4,FDALDDYEHHYHTLHGNVCSFCVR,3.28
5,FDALDDYEHHYHTLHGNVCSFCGR,4.15
6,FDALDDYEHHYHTLHGNVCSFCTR,3.25
7,FDALDDYEHHYHTLHGNVCSFCMR,3.92
8,FDALDDYEHHYHTLHGNVCSFCRR,4.04
9,FDALDDYEHHYHTLHGNVCSFCPR,3
10,FDALDDYEHHYHTLHGNVCSFCWR,1.93
11,FDALDDYEHHYHTLHGNVCSFCQR,3.71
12,FDALDSYEHHYHTLHGNVCSFCKR,3.95
13,FDALDWYEHHYHTLHGNVCSFCKR,1.67
14,FDALDEYEHHYHTLHGNVCSFCKR,3.43
15,FDALDQYEHHYHTLHGNVCSFCKR,3.56
16,FDAPDDYEHHYHTLHGNVCSFCKR,3.54
17,FDAFDDYEHHYHTLHGNVCSFCKR,4
18,FDADDDYEHHYHTLHGNVCSFCKR,4.2
19,FDAEDDYEHHYHTLHGNVCSFCKR,4.41
20,FDATDDYEHHYHTLHGNVCSFCKR,4.44
21,FDWLDDYEHHYHTLHGNVCSFCKR,2.87
22,FDVLDDYEHHYHTLHGNVCSFCKR,3.59
23,FDCLDDYEHHYHTLHGNVCSFCKR,4.06
24,FDQLDDYEHHYHTLHGNVCSFCKR,4.04

row,Variant,protein stability index
1,FDALDDYEDHYHTLHGNVCSFCKR,3.69
2,FDALDDYETHYHTLHGNVCSFCKR,3.47
3,FDALDDYENHYHTLHGNVCSFCKR,2.8
4,FDALDDYEWHYHTLHGNVCSFCKR,2.67
5,FDALDDYEVHYHTLHGNVCSFCKR,3.18
6,FDALDDYEPHYHTLHGNVCSFCKR,3.8
7,FDALDDYECHYHTLHGNVCSFCKR,4.26
8,FDALDDYEEHYHTLHGNVCSFCKR,3.71
9,FDALDDYEIHYHTLHGNVCSFCKR,3.39
10,FDALDDYEAHYHTLHGNVCSFCKR,3.57
11,FDALDDYEHHYHTLHGNVCSWCKR,4.32
12,FDALDDYEHHYHTLHGNVCSMCKR,3.71
13,FDALDDYEHHYHTLHGNVCSSCKR,3.91
14,FDALDDYEHHYHTLHGNVCSVCKR,4.45
15,FDALDDYEHHYHTLHGNVCSGCKR,4.35
16,FDALDDYEHHYHTLHGNVCSCCKR,3.59
17,FDALDDYEHHYHTLHGNVCSHCKR,4
18,FDALDDYEHHYHTLHGNVCSACKR,4.3
19,FDALDDYEHHYHTLHGNVCSLCKR,4.01
20,FDALDDYEHHYHTLHGNVCSPCKR,3.49
21,FDALDDYEHHYHTLHGNVCSFCKL,3.35
22,FDALDDYEHHYHTLHGNVCSFCKA,3.58
23,FDALDDYEHHYHTLHGNVCSFCKC,3.58
24,FDALDDYEHHYHTLHGNVCSFCKE,4.25

row,Variant,protein stability index
1,FDALDDYEHHYHTLHGNVCSFCKF,2.13
2,FDALDDYEHHYHTLHGNVCSFCKV,3.1
3,FDALDDYEHHYHTLHGNVCSFCKM,3.6
4,FDALDDYEHHYHTGHGNVCSFCKR,4.22
5,FDALDDYEHHYHTFHGNVCSFCKR,3.59
6,FDALDDYEHHYHTCHGNVCSFCKR,4.85
7,FDALDDYEHHYHTRHGNVCSFCKR,3.63
8,FDALDDYEHHYHTVHGNVCSFCKR,4.53
9,FDALDDYEHHYHTYHGNVCSFCKR,3.81
10,FDALDDYEHHYHTHHGNVCSFCKR,4.24
11,FDALDDYEHHYHTPHGNVCSFCKR,4.71
12,FDALDDYEHHYHTEHGNVCSFCKR,4.48
13,FDALDDYEHHYHTLHGNSCSFCKR,3.82
14,FDALDDYEHHYHTLHGNTCSFCKR,3.76
15,FDALDDYEHHYHTLHGNHCSFCKR,2.93
16,FDALDDYEHHYHTLHGNICSFCKR,3.53
17,FDALDDYEHHYHTLHGNECSFCKR,4.36
18,FDALDDYEHHYHTLHGNACSFCKR,3.7
19,FDALDDYEHHYHTLHGNPCSFCKR,4.49
20,FDALDDYEHHYHTLHGNKCSFCKR,4.05
